Source: PMC2606670

Experiments:
[1] = biological target: GST-ctβ382-401 Y390F (mouse | not stated) (UniProt P09690); assay: far-Western, overlay or dot blot
[2] = biological target: acetylcholine receptor containing beta subunit phosphorylated at Y390 (mouse (endogenous in myotubes)) (UniProt P04756); assay: co-IP
Sequence of UniProt P04756 (P04756 21-457, chain 1 of 4): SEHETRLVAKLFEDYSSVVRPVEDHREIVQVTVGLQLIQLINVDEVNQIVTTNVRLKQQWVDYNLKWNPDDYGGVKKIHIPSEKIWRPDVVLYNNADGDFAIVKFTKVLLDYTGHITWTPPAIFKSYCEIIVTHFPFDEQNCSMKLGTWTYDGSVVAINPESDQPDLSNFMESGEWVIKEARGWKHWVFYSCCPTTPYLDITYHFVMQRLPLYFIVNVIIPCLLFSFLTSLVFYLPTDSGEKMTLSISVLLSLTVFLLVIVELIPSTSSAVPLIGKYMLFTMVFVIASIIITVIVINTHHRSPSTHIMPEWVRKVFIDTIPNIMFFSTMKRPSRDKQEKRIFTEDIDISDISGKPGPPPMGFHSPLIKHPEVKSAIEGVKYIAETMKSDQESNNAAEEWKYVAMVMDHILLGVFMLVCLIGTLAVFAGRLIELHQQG
Sequence of UniProt P04756 (P09690 24-501, chain 2 of 4, further chain): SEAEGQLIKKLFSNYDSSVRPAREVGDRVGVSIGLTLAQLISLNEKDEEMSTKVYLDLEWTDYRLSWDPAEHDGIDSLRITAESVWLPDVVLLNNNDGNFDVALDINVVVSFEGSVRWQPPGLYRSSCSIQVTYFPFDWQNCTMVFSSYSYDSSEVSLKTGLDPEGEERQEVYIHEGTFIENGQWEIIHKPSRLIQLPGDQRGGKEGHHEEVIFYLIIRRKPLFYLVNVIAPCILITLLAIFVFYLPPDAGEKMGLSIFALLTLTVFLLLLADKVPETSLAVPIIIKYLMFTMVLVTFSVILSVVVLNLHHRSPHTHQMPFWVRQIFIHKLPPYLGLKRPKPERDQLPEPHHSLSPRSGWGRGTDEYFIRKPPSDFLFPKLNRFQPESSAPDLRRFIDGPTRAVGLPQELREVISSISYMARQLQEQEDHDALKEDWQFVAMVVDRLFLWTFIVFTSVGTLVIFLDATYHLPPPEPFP
Sequence of UniProt P04756 (P02716 25-520, chain 3 of 4, further chain): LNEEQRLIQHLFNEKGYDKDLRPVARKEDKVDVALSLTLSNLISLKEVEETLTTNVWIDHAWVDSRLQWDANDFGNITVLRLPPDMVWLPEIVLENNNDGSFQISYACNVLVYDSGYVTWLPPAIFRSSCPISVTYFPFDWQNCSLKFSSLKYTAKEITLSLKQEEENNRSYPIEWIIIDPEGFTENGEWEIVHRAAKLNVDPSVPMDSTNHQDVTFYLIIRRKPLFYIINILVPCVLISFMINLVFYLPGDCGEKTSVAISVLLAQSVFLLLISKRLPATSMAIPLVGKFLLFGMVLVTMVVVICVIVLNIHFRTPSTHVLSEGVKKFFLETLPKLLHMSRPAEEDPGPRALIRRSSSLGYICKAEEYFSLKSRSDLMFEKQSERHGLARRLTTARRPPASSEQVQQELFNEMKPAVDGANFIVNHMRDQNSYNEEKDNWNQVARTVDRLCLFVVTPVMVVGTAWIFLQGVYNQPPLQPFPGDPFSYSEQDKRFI
Sequence of UniProt P04756 (P04760 23-519, chain 4 of 4, further chain): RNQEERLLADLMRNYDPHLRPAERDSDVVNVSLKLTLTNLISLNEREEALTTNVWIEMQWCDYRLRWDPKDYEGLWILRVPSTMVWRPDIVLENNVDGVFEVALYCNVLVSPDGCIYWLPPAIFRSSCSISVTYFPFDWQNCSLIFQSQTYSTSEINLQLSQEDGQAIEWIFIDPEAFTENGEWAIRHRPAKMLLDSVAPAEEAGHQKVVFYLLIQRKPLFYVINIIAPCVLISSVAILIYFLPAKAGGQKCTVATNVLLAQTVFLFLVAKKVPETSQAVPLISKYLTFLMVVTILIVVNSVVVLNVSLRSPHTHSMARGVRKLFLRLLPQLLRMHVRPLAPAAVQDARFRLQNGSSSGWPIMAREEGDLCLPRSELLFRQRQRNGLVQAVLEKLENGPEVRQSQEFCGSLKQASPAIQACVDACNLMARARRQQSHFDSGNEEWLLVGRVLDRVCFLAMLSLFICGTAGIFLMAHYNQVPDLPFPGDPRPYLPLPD

Binder | % of binding to β382-401 WT (% of binding to β382-401 WT) [1] | fold rapsyn associated, against AChR with non-phosphorylated β subunit [2] [fold]
GST-rapsyn (natural protein) MGQDQTKQQIEKGLQLYQSNQTEKALQVWMKVLEKGSDLVGRFRVLGCLVTAHSEMGRYKEMLKFAVVQIDTARGLEDADFLLESYLNLARSNEKLCEFHKTISYCKTCLGLPGTRAGAQLGGQVSLSMGNAFLGLSLFQKALESFEKALRYAHNNDDTMLECRVCCSLGSFYAQVKDYEKALFFPCKAAELVNDYGKGWSLKYRAMSQYHMAVAYRLLGHLGSAMECCEESMKIALQHGDRPLQALCLLCFADIHRSRGDLETAFPRYDSAMSIMTEIGNRLGQVHVLLGVAKCWMARKVQDKALDAIEKAQDLAEEVGNKLSQLKLHCLSESIYRSKGLQRELRTHVVRFHECVEETELYCGLCGESIGERNSRLQALPCSHIFHLRCLQNNGTRSCPNCRRSSMKPGFV | 92 | 
rapsyn, endogenous in mouse myotubes (natural protein) MGQDQTKQQIEKGLQLYQSNQTEKALQVWMKVLEKGSDLVGRFRVLGCLVTAHSEMGRYKEMLKFAVVQIDTARGLEDADFLLESYLNLARSNEKLCEFHKTISYCKTCLGLPGTRAGAQLGGQVSLSMGNAFLGLSLFQKALESFEKALRYAHNNDDTMLECRVCCSLGSFYAQVKDYEKALFFPCKAAELVNDYGKGWSLKYRAMSQYHMAVAYRLLGHLGSAMECCEESMKIALQHGDRPLQALCLLCFADIHRSRGDLETAFPRYDSAMSIMTEIGNRLGQVHVLLGVAKCWMARKVQDKALDAIEKAQDLAEEVGNKLSQLKLHCLSESIYRSKGLQRELRTHVVRFHECVEETELYCGLCGESIGERNSRLQALPCSHIFHLRCLQNNGTRSCPNCRRSSMKPGFV |  | 2.3
